What was measured:
[1] = target: T1, human CD28 on cells (HEK293/hCD28 cells, human T cells, engineered reporter T-cells) (human, UniProt P10747 19-220); experiment: cell-based or functional assay
[2] = target: T1, human CD28 on cells (HEK293/hCD28 …); experiment: cell-based or functional assay; remark: listed apart in the source
[3] = target: T2, hCD28.mmh (hCD28 ecto (N19-P152).mmh) (human); experiment: SPR (Biacore T-200), antibody captured on anti-human Fc, hCD28.mmh injected, 25 C
T2 construct: also called REGN2011

[4] = target: T1, human CD28 on cells (HEK293/hCD28 …); experiment: cell-based or functional assay; remark: listed apart in the source
[5] = target: T3, human PSMA on cells (C4-2, 22RV1, HEK293/hCD20/hPSMA) (human, UniProt Q04609 1-750); experiment: electrochemiluminescence cell binding (MSD), supplemental experiment, C4-2 P-7 cells
T3 construct: C4-2 and 22RV1 express PSMA endogenously; also called FOLH1

[6] = target: T4, 6h.hPSMA (recombinant Human PSMA/FOLH1 Protein, R&D, Catalog #4234-ZN) (human, UniProt Q04609 44-750); experiment: SPR (Biacore T-200), antibody captured on anti-human Fc, 6h.hPSMA injected, 25 C
T4 construct: Bought protein; also called hPSMA.6H; hPSMA with an N-terminal polyhistidine tag; not shown: N-terminal polyhistidine (6-His) tag

[7] = target: T1, human CD28 on cells (HEK293/hCD28 …); experiment: electrochemiluminescence cell binding (MSD), HEK293-hCD28 cells
[8] = target: T3, human PSMA on cells (C4-2, 22RV1, …); experiment: electrochemiluminescence cell binding (MSD), C4-2 cells; concentrations above 11.1 nM excluded
[9] = target: T1, human CD28 on cells (HEK293/hCD28 …); experiment: electrochemiluminescence cell binding (MSD)
[10] = target: T3, human PSMA on cells (C4-2, 22RV1, …); experiment: electrochemiluminescence cell binding (MSD)
[11] = target: T3, human PSMA on cells (C4-2, 22RV1, …); experiment: electrochemiluminescence cell binding (MSD), C4-2 cells
[12] = target: T3, human PSMA on cells (C4-2, 22RV1, …); experiment: flow cytometry, 22RV1 cells
[13] = target: T1, human CD28 on cells (HEK293/hCD28 …); experiment: flow cytometry, human CD8+ T cells
[14] = target: T3, human PSMA on cells (C4-2, 22RV1, …); experiment: flow cytometry, C4-2 cells
[15] = target: T1, human CD28 on cells (HEK293/hCD28 …); experiment: flow cytometry, human CD2+ T cells
[16] = target: T1, human CD28 on cells (HEK293/hCD28 …); experiment: flow cytometry, human CD4+ T cells
[17] = target: T4, 6h.hPSMA (recombinant Human PSMA/FOLH1 …); experiment: SPR (Biacore), captured antibody, 20 nM hPSMA.6H row, 37 C
[18] = target: T2, hCD28.mmh (hCD28 ecto (N19-P152).mmh); experiment: SPR (Biacore), captured antibody, soluble hCD28 injected, 37 C
[19] = target: T4, 6h.hPSMA (recombinant Human PSMA/FOLH1 …); experiment: SPR (Biacore), captured antibody, 10 nM hPSMA.6H row, 37 C
[20] = target: T3, human PSMA on cells (C4-2, 22RV1, …); experiment: flow cytometry (FACS binding), MFI_APC against antibody concentration; the sheet does not name the cells; legend paragraph 55: cancer cell lines with endogenous PSMA; unit taken from the axis Log10 (M)

T4 sequence (Q04609 44-750 limits assumed): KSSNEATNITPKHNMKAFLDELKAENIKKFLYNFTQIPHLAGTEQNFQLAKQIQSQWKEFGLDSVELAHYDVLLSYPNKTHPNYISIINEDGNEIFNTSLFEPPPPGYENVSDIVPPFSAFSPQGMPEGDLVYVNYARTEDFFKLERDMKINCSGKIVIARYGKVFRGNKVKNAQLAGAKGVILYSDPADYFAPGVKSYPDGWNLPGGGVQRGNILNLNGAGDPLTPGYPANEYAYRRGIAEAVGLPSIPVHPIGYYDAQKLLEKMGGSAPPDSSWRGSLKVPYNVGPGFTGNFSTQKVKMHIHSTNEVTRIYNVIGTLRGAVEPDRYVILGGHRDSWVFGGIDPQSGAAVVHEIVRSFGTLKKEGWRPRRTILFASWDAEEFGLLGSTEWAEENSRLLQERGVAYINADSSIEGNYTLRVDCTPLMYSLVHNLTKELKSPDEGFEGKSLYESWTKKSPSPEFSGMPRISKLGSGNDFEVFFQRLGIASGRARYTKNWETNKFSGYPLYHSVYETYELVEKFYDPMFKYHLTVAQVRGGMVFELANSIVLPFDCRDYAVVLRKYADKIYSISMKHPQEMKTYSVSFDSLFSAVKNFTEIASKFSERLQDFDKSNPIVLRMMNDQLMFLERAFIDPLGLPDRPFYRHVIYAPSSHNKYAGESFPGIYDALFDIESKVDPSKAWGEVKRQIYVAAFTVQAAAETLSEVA
T3 sequence (Q04609 whole entry): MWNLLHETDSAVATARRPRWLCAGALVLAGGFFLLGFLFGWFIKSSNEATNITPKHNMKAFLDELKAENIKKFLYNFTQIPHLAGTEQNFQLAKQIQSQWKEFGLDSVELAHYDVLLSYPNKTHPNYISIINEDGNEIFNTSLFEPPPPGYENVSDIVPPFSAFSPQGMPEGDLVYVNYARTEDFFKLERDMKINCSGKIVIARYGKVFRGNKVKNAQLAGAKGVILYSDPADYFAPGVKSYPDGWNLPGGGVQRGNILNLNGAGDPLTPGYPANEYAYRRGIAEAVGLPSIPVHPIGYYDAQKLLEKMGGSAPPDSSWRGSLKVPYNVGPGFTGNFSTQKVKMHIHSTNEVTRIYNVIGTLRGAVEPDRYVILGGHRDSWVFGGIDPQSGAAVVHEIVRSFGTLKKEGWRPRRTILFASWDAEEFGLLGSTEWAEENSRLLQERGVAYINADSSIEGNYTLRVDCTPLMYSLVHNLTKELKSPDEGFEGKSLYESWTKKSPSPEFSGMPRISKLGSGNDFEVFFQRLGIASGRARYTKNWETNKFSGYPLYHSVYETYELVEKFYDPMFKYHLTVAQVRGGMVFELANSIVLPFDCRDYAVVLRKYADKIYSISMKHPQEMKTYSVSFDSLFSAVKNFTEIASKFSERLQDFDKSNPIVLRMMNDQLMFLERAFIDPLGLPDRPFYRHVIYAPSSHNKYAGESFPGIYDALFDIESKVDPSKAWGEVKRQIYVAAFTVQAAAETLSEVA

Row | Binder | NFκB-luciferase EC50, reporter T-cells + HEK293/hCD20/hPSMA, 50 pM anti-CD3×CD20 [1] [M] | T½ (dissociative half-life) [3] [min] | IL-2 production EC50, primary CD4+ T-cells + HEK293/hCD20/hPSMA, 50 pM anti-CD3×CD20 [4] [M] | binding result [6] | EC50 [8] [nM] | ratio of binding signal (RLU) HEK293-hCD28/HEK293HZ at 11.1 nM [9] [fold] | ratio of binding signal (RLU) C4-2/HEK293HZ at 11.1 nM [10] [fold] | EC50 [11] [nM] | EC50 [7] [nM] | EC50 [12] [nM] | EC50 [13] [nM] | Kd [3] [nM] | EC50 [14] [nM] | EC50 [15] [nM] | EC50 [16] [nM] | Kd [6] [nM] | T½ (dissociative half-life) [6] [min] | also measured
1 | mAb14226P2 (antibody, V domains shown, Bivalent parental anti-CD28 antibody; also called anti-CD28 monoclonal antibody) VH: QVQLQESGPGLVKPSETLSLTCTVSGGSISSYYWSWIRQPPGKGLEWIGYIYYSGITHYNPSLKSRVTISVDTSKIQFSLKLSSVTAADTAVYYCARWGVRRDYYYYGMDVWGQGTTVTVSS VL: not shown | 3.27e-09 | 3.5 | 8.69e-09 | no binding (tested: 10 nM) | – | – | – | – | – | – | – | – | – | – | – | – | – | NFκB-luciferase EC50, reporter T-cells + HEK293/hCD20, 50 pM anti-CD3×CD20 [1]: 3.59e-09 M; NFκB-luciferase EC50, reporter T-cells + HEK293/hCD20, 50 pM hIgG4 isotype control (no TCR stimulation) [2]: 5.11e-09 M; NFκB-luciferase EC50, reporter T-cells + HEK293/hCD20/hPSMA, 50 pM hIgG4 isotype control (no TCR stimulation) [2]: 4.9e-09 M; IL-2 production EC50, primary CD4+ T-cells + HEK293/hCD20, 50 pM anti-CD3×CD20 [4]: 6.05e-09 M; binding result [5]: no binding
2 | mAb11838P2 (antibody, V domains shown, Bivalent parental anti-PSMA antibody; also called anti-PSMA monoclonal antibody; mAb11838P2 (PSMA)) VH: QVQLVESGGGVVQPGRSLRLSCAASGFTFSSYGMHWVRQAPGKGLEWVAFMSYDGSNKFYSDSVKGRFTISRDNSRKMLFLQMNNLRAEDTAVYYCARDQYYDFLTDHGVFDYWGQGTLVTVSS VL: not shown | – | – | – | – | 0.738 | < 1 | 4 | – | – | – | – | – | – | – | – | – | – | binding result [7]: no binding (tested: ratio to HEK293HZ less than 3 at 11.1 nM)
3 | mAb14216P2 (antibody, V domains shown, Bivalent parental anti-CD28 antibody; also called anti-CD28 monoclonal antibody) VH: EVQLVESGGGLVQPGGSLRLSCAASGFTFSRNNMHWVRQAPGKGLEYVSGISSNGGRTYYADSVKGRFTISRDNSKNTLYLQMGGLRAADMAVYFCTRDDELLSFDYWGQGTLVTVSS VL: not shown | – | 8.2 | – | no binding (tested: 10 nM) | – | – | – | – | – | – | – | – | – | – | – | – | – | binding result [11]: no binding (tested: ratio to HEK293HZ less than 3 at 11.1 nM)
4 | bs16430D (bispecific antibody, V domains shown, two distinct heavy chains with a common light chain; also called anti-PSMA×CD28 bispecific antibody; PSMA × CD28 monoclonal antibody) VH 1: EVQLVESGGGLVQPGGSLRLSCAASGFTFSTYAMTWVRQAPGKGLEWVSFISGSGDNTYYADSVKGRFTISRDNSKNTLYLQMNSLRADDSAIYHCAKDSGYCSSGGCSLYFYYGMDVWGQGTTVTVSS VH 2: QVQLVESGGGVVQPGRSLRLSCAASGFTFSSYGMHWVRQAPGKGLEWVAVISYAGNNKYYADSVKGRFTVSRDNSKKTLYLQMNSLRSEDTAVYYCAKDSYYDFLTDPDVLDIWGQGTMVTVSS VL: not shown | 4.57e-10 | – | 1.5e-10 | – | – | 41 | 10 | 5.24 | 8.47 | – | – | – | – | – | – | – | – | NFκB-luciferase fold induction, reporter T-cells + HEK293/hCD20, 50 pM anti-CD3×CD20 [1]: 0.92 fold; NFκB-luciferase fold induction, reporter T-cells + HEK293/hCD20/hPSMA, 50 pM anti-CD3×CD20 [1]: 13.6 fold; NFκB-luciferase fold induction, reporter T-cells + HEK293/hCD20, 50 pM hIgG4 isotype control (no TCR stimulation) [2]: 0.87 fold; NFκB-luciferase fold induction, reporter T-cells + HEK293/hCD20/hPSMA, 50 pM hIgG4 isotype control (no TCR stimulation) [2]: 0.89 fold; IL-2 production fold induction, primary CD4+ T-cells + HEK293/hCD20, 50 pM anti-CD3×CD20 [4]: 1 fold; IL-2 production fold induction, primary CD4+ T-cells + HEK293/hCD20/hPSMA, 50 pM anti-CD3×CD20 [4]: 165 fold
5 | bs16431D (bispecific antibody, V domains shown, two distinct heavy chains with a common light chain; also called anti-PSMA×CD28 bispecific antibody; PSMA × CD28 monoclonal antibody) VH 1: QVQLVESGGGVVQPGRSLRLSCAASGFTFSSYGMHWVRQAPGKGLEWVAVISYAGNNKYYADSVKGRFTVSRDNSKKTLYLQMNSLRSEDTAVYYCAKDSYYDFLTDPDVLDIWGQGTMVTVSS VH 2: EVQLVESGGGLVQPGGSLRLSCAASGFTFSRNNMHWVRQAPGKGLEYVSGISSNGGRTYYADSVKGRFTISRDNSKNTLYLQMGGLRAADMAVYFCTRDDELLSFDYWGQGTLVTVSS VL: not shown | 2.78e-10 | 8.2 | 2.2e-10 | – | 0.35 | – | – | – | 5.31 | 6.33 | 180 | 207 | 1.5 | 180 | 167 | 0.137 | 300 | –
6 | bs16429D (bispecific antibody, human IgG4 S228P, kappa, also called anti-PSMA×CD28 bispecific antibody; PSMA × CD28 monoclonal antibody) heavy 1: QVQLQESGPGLVKPSETLSLTCTVSGGSISSYYWSWIRQPPGKGLEWIGYIYYSGITHYNPSLKSRVTISVDTSKIQFSLKLSSVTAADTAVYYCARWGVRRDYYYYGMDVWGQGTTVTVSSASTKGPSVFPLAPCSRSTSESTAALGCLVKDYFPEPVTVSWNSGALTSGVHTFPAVLQSSGLYSLSSVVTVPSSSLGTKTYTCNVDHKPSNTKVDKRVESKYGPPCPPCPAPPVAGPSVFLFPPKPKDTLMISRTPEVTCVVVDVSQEDPEVQFNWYVDGVEVHNAKTKPREEQFNSTYRVVSVLTVLHQDWLNGKEYKCKVSNKGLPSSIEKTISKAKGQPREPQVYTLPPSQEEMTKNQVSLTCLVKGFYPSDIAVEWESNGQPENNYKTTPPVLDSDGSFFLYSRLTVDKSRWQEGNVFSCSVMHEALHNRFTQKSLSLSPGK heavy 2: QVQLVESGGGVVQPGRSLRLSCAASGFTFSSYGMHWVRQAPGKGLEWVAFMSYDGSNKFYSDSVKGRFTISRDNSRKMLFLQMNNLRAEDTAVYYCARDQYYDFLTDHGVFDYWGQGTLVTVSSASTKGPSVFPLAPCSRSTSESTAALGCLVKDYFPEPVTVSWNSGALTSGVHTFPAVLQSSGLYSLSSVVTVPSSSLGTKTYTCNVDHKPSNTKVDKRVESKYGPPCPPCPAPPVAGPSVFLFPPKPKDTLMISRTPEVTCVVVDVSQEDPEVQFNWYVDGVEVHNAKTKPREEQFNSTYRVVSVLTVLHQDWLNGKEYKCKVSNKGLPSSIEKTISKAKGQPREPQVYTLPPSQEEMTKNQVSLTCLVKGFYPSDIAVEWESNGQPENNYKTTPPVLDSDGSFFLYSRLTVDKSRWQEGNVFSCSVMHEALHNHYTQKSLSLSLGK light: not shown | 1.72e-10 | 3.5 | 2.7e-10 | – | – | – | – | 0.853 | 9.58 | 3.05 | 58.9 | 144 | 3.87 | 48 | 50.9 | 0.251 | 235 | Kd [17]: 0.217 nM; t½ (dissociative half-life) [17]: 182 min; Kd [18]: 272 nM; t½ (dissociative half-life) [18]: 1.7 min; Kd [19]: 0.396 nM; t½ (dissociative half-life) [19]: 146 min; EC50 [20]: 9.34 nM

Source: patent US20190389951A1 (Regeneron, published 2019)
